Laboratory results: article PMC12108577
Several values for one entry are separate records, joined by “and”; a condition that tells them apart may be missing. Equal values may be shown once.

What was measured:
[1] = molecular target: CXCL5-Fc fusion protein (UniProt P42830); assay: SDS-PAGE under reducing and non-reducing conditions; purified proteins separated under reducing and non-reducing conditions, Coomassie Blue staining
[2] = molecular target: CXCR2 on THP-1 cells (UniProt P25025); assay: flow cytometry on cells; settings: THP-1 cells (CXCR2+), FITC-conjugated anti-6X His antibody
[3] = molecular target: CXCL1-Fc fusion protein (UniProt P09341); assay: SDS-PAGE under reducing and non-reducing conditions; purified proteins separated under reducing and non-reducing conditions, Coomassie Blue staining
[4] = molecular target: CXCR2 on THP-1 cells (human (endogenous in THP-1)) (UniProt P25025); assay: flow cytometry on cells; THP-1 cells incubated on ice with purified proteins for 30 min; bound protein detected with a fluorophore-conjugated anti-His tag antibody; FACS buffer (PBS, 1% FBS, 150 μM CaCl2); Fc receptors blocked with Human SeroBlock; single dose and a range of concentrations
[5] = molecular target: CXCR2 on THP-1 cells (human (endogenous in THP-1)) (UniProt P25025)
[6] = n = 3, parent: est. 100000, read off a plot

CXCL1^1-Fc^2, sequence (P09341 whole entry, looked up, tested part not stated): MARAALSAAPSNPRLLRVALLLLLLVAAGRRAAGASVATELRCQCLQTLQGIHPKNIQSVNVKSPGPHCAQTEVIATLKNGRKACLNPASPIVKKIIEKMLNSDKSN
CXCL1^1-Fc^1, sequence (P09341 whole entry): as the sequence (P09341 whole entry, looked up, tested part not stated) above

Substance	response [2, 6] [MFI]	response ([2]; parent: 99.9) [%]	IC50 of inhibition of THP-1 cell migration toward PDAC conditioned medium (Boyden chamber) [5] [nM]	further results
CXCL5-Fc fusion protein (from UniProt P42830 37-114)	–	–	–	stoichiometry N [1]: 2
CXCL1-Fc fusion protein (from UniProt P09341) CXCL1-Fc chain:T366Y; Fc chain:Y407T	19000	98.5	–	–
CXCL1-Fc fusion protein (from UniProt P09341 35-107)	–	–	–	stoichiometry N [3]: 2; fold higher mean fluorescence intensity per cell than CXCL1^1-Fc^2 or CXCL1^1-Fc^1 [4]: 3 fold and 4 fold

More lines, main results first:

response [2, 6] [MFI]	response ([2]; parent: 99.9) [%]	IC50 of inhibition of THP-1 cell migration toward PDAC conditioned medium (Boyden chamber) [5] [nM]	Substance	further results
–	–	28	CXCL1^1-Fc^2 (from UniProt P09341 35-107) (Fc fusion)	–
22000	97.9	–	CXCL1-Fc fusion protein (from UniProt P09341) T366Y	–
–	–	211	CXCL1^1-Fc^1 (from UniProt P09341 35-107) (Fc fusion)	–
